# Assay results published in US12329823B2 (The Scripps Research Institute, priority 2021, dated 2025).
# Experiments:
# in vivo [1] = details: dog
# in vivo [2] = details: cynomolgus monkey
# mouse GLP1R = target: T1, mouse GLP1R (Mus musculus, UniProt O35659); test: In vitro potency, mouse GLP1R activation (receptor-mediated cAMP synthesis); type: cell-based; details: Table 12
# T1 sequence (O35659 22-463): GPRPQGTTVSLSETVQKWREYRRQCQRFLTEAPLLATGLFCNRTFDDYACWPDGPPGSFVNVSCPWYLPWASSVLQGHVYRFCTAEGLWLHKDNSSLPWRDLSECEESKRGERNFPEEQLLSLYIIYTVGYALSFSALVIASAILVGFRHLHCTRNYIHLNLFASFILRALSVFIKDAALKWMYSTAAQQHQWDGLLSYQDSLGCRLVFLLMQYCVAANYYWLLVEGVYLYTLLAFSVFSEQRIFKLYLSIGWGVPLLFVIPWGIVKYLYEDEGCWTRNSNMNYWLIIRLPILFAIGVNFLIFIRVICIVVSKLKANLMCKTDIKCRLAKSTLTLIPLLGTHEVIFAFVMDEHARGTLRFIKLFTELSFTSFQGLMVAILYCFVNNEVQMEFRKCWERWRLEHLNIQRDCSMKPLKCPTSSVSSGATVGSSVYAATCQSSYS
# Experimental: GLP-1R-CRE or HEK293-GIPR-CRE cells were seeded in 384-well plates at a density of 5000 cells per well and cultured for 18 h in DMEM with 10% FBS at 37° C. and 5% CO2. Cells were treated with peptides in a dose dependent manner for 24 h, and receptor activation was reported by luminescence intensities, using One-Glo (Promega, WI) luciferase reagent following manufacturer's instruction. The EC50 of each peptide was determined using GraphPad Prism 6 software (GraphPad, San Diego, CA). Results are depicted in FIGS. 6A-6B, FIGS. 7A-7B, FIGS. 8A-8B, FIGS. 9A-9B, and Tables 7-12. Measurements of peptide conjugate potency were expressed as half maximal effective concentration (EC50) values.
# mouse GIPR = target: T2, mouse GIPR (Mus musculus, UniProt Q0P543); test: In vitro potency, mouse GIPR activation (receptor-mediated cAMP synthesis); type: cell-based; details: Table 12
# T2 sequence (Q0P543 19-460): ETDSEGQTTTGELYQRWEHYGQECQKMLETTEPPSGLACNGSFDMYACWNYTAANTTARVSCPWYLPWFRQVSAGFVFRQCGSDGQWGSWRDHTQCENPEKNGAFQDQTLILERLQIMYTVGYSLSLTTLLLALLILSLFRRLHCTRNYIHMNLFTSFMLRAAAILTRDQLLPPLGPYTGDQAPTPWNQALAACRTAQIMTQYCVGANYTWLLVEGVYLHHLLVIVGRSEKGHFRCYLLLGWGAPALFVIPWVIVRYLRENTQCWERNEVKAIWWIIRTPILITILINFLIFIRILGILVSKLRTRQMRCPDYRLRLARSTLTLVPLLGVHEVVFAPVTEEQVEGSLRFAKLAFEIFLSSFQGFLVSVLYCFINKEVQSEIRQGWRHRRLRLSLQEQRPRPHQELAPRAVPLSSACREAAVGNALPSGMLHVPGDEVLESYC
compound,measurement,setting,value
CC[C@H](C)[C@H](NC(=O)[C@H](CC(C)C)NC(=O)[C@H](Cc1c[nH]c2ccccc12)NC(=O)[C@@H]1CSCC(=O)NCCN(C(=O)CCC(=O)NCCOCCOCCC(=O)NCCOCCOCCC(=O)NCCCC[C@H](NC(=O)CCCCCCCCCCCCCCCCCCC(=O)O)C(=O)O)CCNC(=O)CSC[C@H](NC(=O)[C@H](CCCCN)NC(=O)[C@H](CC(=O)O)NC(=O)[C@H](CC(C)C)NC(=O)[C@H](Cc2ccc(O)cc2)NC(=O)[C@@H](NC(=O)[C@H](CO)NC(=O)[C@H](Cc2ccc(O)cc2)NC(=O)[C@H](CC(=O)O)NC(=O)[C@H](CO)NC(=O)[C@@H](NC(=O)[C@H](Cc2ccccc2)NC(=O)[C@@H](NC(=O)CNC(=O)[C@H](CCC(=O)O)NC(=O)C(C)(C)NC(=O)[C@@H](N)Cc2ccc(O)cc2)[C@@H](C)O)[C@@H](C)O)[C@@H](C)CC)C(=O)N[C@@H](C)C(=O)N[C@@H](C)C(=O)NC(C)(C)C(=O)N[C@@H](CCC(=O)O)C(=O)N[C@@H](Cc2ccccc2)C(=O)N[C@@H](C(C)C)C(=O)N1)C(=O)N[C@@H](C)C(=O)NCC(=O)NCC(=O)N1CCC[C@H]1C(=O)N[C@@H](CO)C(=O)N[C@@H](CO)C(=O)NCC(=O)N[C@@H](C)C(=O)N1CCC[C@H]1C(=O)N1CCC[C@H]1C(=O)N1CCC[C@H]1C(=O)N[C@@H](CO)C(N)=O [mCMV268],AUC(0-t),in vivo [1]; iv,59200 ng·h/mL
same,Cmax,in vivo [1]; iv,8500 ng/mL
same,T last,in vivo [1]; iv,168 h
same,Tmax,in vivo [1]; iv,0.693 h
same,Vd,in vivo [1]; iv,0.0957 L/kg
same,clearance,in vivo [1]; iv,1.09 mL/h/kg
same,half-life,in vivo [1]; iv,63.9 h
same,AUC(0-t),in vivo [1]; po,1700 ng·h/mL
same,Cl,in vivo [1]; po,1300 mL/h/kg
same,Cmax,in vivo [1]; po,31.4 ng/mL
same,T last,in vivo [1]; po,144 h
same,Tmax,in vivo [1]; po,1 h
same,bioavailability,in vivo [1]; po,"0.27%, 0.27%,"
same,half-life,in vivo [1]; po,77.8 h
same,T last,in vivo [2]; iv,504 h
same,Vd,in vivo [2]; iv,0.0612 L/kg
same,clearance,in vivo [2]; iv,0.84 mL/h/kg
same,half-life,in vivo [2]; iv,58.8 h
same,AUC(0-t),in vivo [2]; sc,438000 ng·h/mL
same,Cmax,in vivo [2]; sc,3930 ng/mL
same,T last,in vivo [2]; sc,504 h
same,Tmax,in vivo [2]; sc,14.7 h
same,bioavailability,in vivo [2]; sc,73.7%
same,half-life,in vivo [2]; sc,60.5 h
same,EC50,mouse GLP1R,0.26 nM
same,EC50,mouse GIPR,0.26 nM
"CC[C@H](C)[C@H](NC(=O)[C@H](CC(C)C)NC(=O)[C@H](Cc1c[nH]c2ccccc12)NC(=O)[C@@H]1CSCC(=O)NCCN(C(=O)CCC(=O)NCCOCCOCCC(=O)NCCOCCOCCC(=O)NCCCC[C@H](NC(=O)CCCCCCCCCCCCCCCCC(=O)O)C(=O)O)CCNC(=O)CSC[C@H](NC(=O)[C@H](CCCCN)NC(=O)[C@H](CC(=O)O)NC(=O)[C@H](CC(C)C)NC(=O)[C@H](Cc2ccc(O)cc2)NC(=O)[C@@H](NC(=O)[C@H](CO)NC(=O)[C@H](Cc2ccc(O)cc2)NC(=O)[C@H](CC(=O)O)NC(=O)[C@H](CO)NC(=O)[C@@H](NC(=O)[C@H](Cc2ccccc2)NC(=O)[C@@H](NC(=O)CNC(=O)[C@H](CCC(=O)O)NC(=O)C(C)(C)NC(=O)[C@@H](N)Cc2ccc(O)cc2)[C@@H](C)O)[C@@H](C)O)[C@@H](C)CC)C(=O)N[C@@H](C)C(=O)N[C@@H](C)C(=O)NC(C)(C)C(=O)N[C@@H](CCC(=O)O)C(=O)N[C@@H](Cc2ccccc2)C(=O)N[C@@H](C(C)C)C(=O)N1)C(=O)N[C@@H](C)C(=O)NCC(=O)NCC(=O)N1CCC[C@H]1C(=O)N[C@@H](CO)C(=O)N[C@@H](CO)C(=O)NCC(=O)N[C@@H](C)C(=O)N1CCC[C@H]1C(=O)N1CCC[C@H]1C(=O)N1CCC[C@H]1C(=O)N[C@@H](CO)C(N)=O [mCMZ371, YAibEGT-FTSDY-SIYLD-KXAAAib-EFVXW-LIAGG-PSSGA-PPPS-NH2 (where each X is C) (SEQ ID NO: 61)]",t1/2 in dogs (in words),in vivo [1],long t1/2
same,AUC(0-t),in vivo [1]; iv,25600 ng·h/mL
same,T last,in vivo [1]; iv,240 h
same,Vd,in vivo [1]; iv,0.11 L/kg
same,clearance,in vivo [1]; iv,1.19 mL/h/kg
same,half-life,in vivo [1]; iv,71.9 h
same,AUC(0-t),in vivo [1]; sc,17600 ng·h/mL
same,Cmax,in vivo [1]; sc,150 ng/mL
same,T last,in vivo [1]; sc,240 h
same,Tmax,in vivo [1]; sc,24 h
same,half-life,in vivo [1]; sc,62.7 h
same,bioavailability,"in vivo [1]; sc, Bioavailability",68.7%
same,t1/2 in cynomolgus monkeys (in words),in vivo [2],long t1/2
same,AUC(0-t),in vivo [2]; iv,267000 ng·h/mL
same,T last,in vivo [2]; iv,240 h
same,Vd,in vivo [2]; iv,0.0538 L/kg
same,clearance,in vivo [2]; iv,0.756 mL/h/kg
same,half-life,in vivo [2]; iv,60.2 h
same,AUC(0-t),in vivo [2]; sc,156000 ng·h/mL
same,Cmax,in vivo [2]; sc,1740 ng/mL
same,T last,in vivo [2]; sc,240 h
same,Tmax,in vivo [2]; sc,24 h
same,bioavailability,in vivo [2]; sc,58.5%
same,half-life,in vivo [2]; sc,49.3 h
same,EC50,mouse GLP1R,0.09 nM
same,EC50,mouse GIPR,0.27 nM
